Experimental data reported in paper PMC3646756.
Values belong to the substance of their own block, whether it stands above or below them.

Tests used:
[1] = target: hIgG1 (anti-hsIL-6R antibody with wild-type human IgG1 constant region) (human); test: SPR; Biacore T200; antibody variant captured on Protein L immobilised on a CM4 chip, FcRn injected over the flow cell; pH 7.0
[2] = target: hIgG1 Fc variant v1 (I332V/N434Y) (human); test: as above
[3] = target: hIgG1 (anti-hsIL-6R antibody with wild-type human IgG1 constant region) (human); test: SPR; KD at pH 6.0 (Table 1); set-up told only for pH 7.0: antibody variant captured on Protein L on a CM4 chip, FcRn injected
[4] = target: hIgG1 Fc variant v1 (I332V/N434Y) (human); test: as above
[5] = target: recombinant human FcRn (human) (UniProt P55899)
[6] = target: hIgG1 Fc variant v2 (M252W/N434W) (human); test: SPR; Biacore T200; antibody variant captured on Protein L immobilised on a CM4 chip, FcRn injected over the flow cell; pH 7.0
[7] = target: hIgG1 Fc variant v3 (M252Y/N434Y) (human); test: as above
[8] = target: hIgG1 Fc variant v5 (M252Y/T307Q/Q311A/N434Y) (human); test: as above
[9] = target: hIgG1 Fc variant v6 (M252Y/V308P/N434Y) (human); test: as above
[10] = target: hIgG1 Fc variant v2 (M252W/N434W) (human); test: SPR; KD at pH 6.0 (Table 1); set-up told only for pH 7.0: antibody variant captured on Protein L on a CM4 chip, FcRn injected
[11] = target: hIgG1 Fc variant v3 (M252Y/N434Y) (human); test: as above
[12] = target: hIgG1 Fc variant v4 (M252Y/N286E/N434Y) (human); test: as above
[13] = target: hIgG1 Fc variant v5 (M252Y/T307Q/Q311A/N434Y) (human); test: as above
[14] = target: hIgG1 Fc variant v6 (M252Y/V308P/N434Y) (human); test: as above
[15] = target: recombinant mouse FcRn (mouse) (UniProt Q61559)

Kd [1]: 3.92 µM
Kd [2]: 0.052 µM
Kd [3]: 0.237 µM
Kd [4]: 0.003 µM
Substance: recombinant mouse FcRn (from UniProt Q61559 22-365) (receptor)

fold decrease in total hsIL-6R plasma concentration after PH-v4 against NPH-IgG1, 1 mg/kg i.v. with 1 g/kg hIgG, hFcRn-Tgm steady-state model [5]: 50 fold
Substance: hIgG1 Fc variant v4 (M252Y/N286E/N434Y) (antibody)

Kd [1]: 88 µM
Kd [6]: 0.155 µM
Kd [7]: 0.288 µM
Kd [8]: 0.077 µM
Kd [9]: 0.035 µM
Kd [3]: 1.38 µM
Kd [10]: 0.006 µM
Kd [11]: 0.015 µM
Kd [12]: 0.008 µM
Kd [13]: 0.005 µM
Kd [14]: 0.003 µM
Substance: recombinant human FcRn (from UniProt P55899 24-365) (receptor)

total hsIL-6R plasma concentration after PH-v1, 1 mg/kg i.v., normal mice steady-state model (reduction below the baseline) [15]: 150 fold
Substance: hIgG1 Fc variant v1 (I332V/N434Y) (antibody)
